Patent publication US20130336893A1 (Sanofi, published 2013)
*1 amine or outer side, *2 acyl side, *3 side chain or, on linkers, in order; H or OH if unused. Where no end group is shown, it is not given here. Side-chain parts run from the residue outwards. [ ]: non-standard residue; d: D form. The star is where a group is joined. γGlu = O=C(O)[C@H](CCC(=O)[*:2])N[*:1]; Palmitoyl = CCCCCCCCCCCCCCCC(=O)*

Experiments:
[1] = target: human GLP-1 receptor (human, UniProt P43220 24-463); test: cell-based or functional assay
[2] = target: human glucagon receptor (human, UniProt P47871 26-477); test: cell-based or functional assay
Chain of human glucagon receptor (P47871 26-477): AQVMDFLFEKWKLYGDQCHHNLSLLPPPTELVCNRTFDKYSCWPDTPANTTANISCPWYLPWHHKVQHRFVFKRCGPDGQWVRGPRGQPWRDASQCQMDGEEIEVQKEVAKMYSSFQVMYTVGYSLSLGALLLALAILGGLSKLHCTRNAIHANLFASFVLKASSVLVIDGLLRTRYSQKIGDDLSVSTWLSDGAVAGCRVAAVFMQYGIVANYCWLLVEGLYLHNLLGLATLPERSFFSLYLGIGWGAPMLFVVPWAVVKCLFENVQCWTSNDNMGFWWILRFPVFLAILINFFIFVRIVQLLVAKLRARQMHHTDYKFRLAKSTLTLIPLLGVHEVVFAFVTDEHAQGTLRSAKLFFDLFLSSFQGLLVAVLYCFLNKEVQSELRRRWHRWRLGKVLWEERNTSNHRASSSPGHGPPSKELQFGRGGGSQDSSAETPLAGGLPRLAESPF

B1: SEQ ID NO: (74) (peptide)
peptide: H[dS]QGTFTSDLSKQMESRRAQDFIEWLKNTGPSSGAPPPSK([γGlu-Palmitoyl])-NH2
modifications: N-terminus assumed
SMILES: CCCCCCCCCCCCCCCC(=O)N[C@@H](CCC(=O)NCCCC[C@H](NC(=O)[C@H](CO)NC(=O)[C@@H]1CCCN1C(=O)[C@@H]1CCCN1C(=O)[C@@H]1CCCN1C(=O)[C@H](C)NC(=O)CNC(=O)[C@H](CO)NC(=O)[C@H](CO)NC(=O)[C@@H]1CCCN1C(=O)CNC(=O)[C@@H](NC(=O)[C@H](CC(N)=O)NC(=O)[C@H](CCCCN)NC(=O)[C@H](CC(C)C)NC(=O)[C@H](Cc1c[nH]c2ccccc12)NC(=O)[C@H](CCC(=O)O)NC(=O)[C@@H](NC(=O)[C@H](Cc1ccccc1)NC(=O)[C@H](CC(=O)O)NC(=O)[C@H](CCC(N)=O)NC(=O)[C@H](C)NC(=O)[C@H](CCCNC(=N)N)NC(=O)[C@H](CCCNC(=N)N)NC(=O)[C@H](CO)NC(=O)[C@H](CCC(=O)O)NC(=O)[C@H](CCSC)NC(=O)[C@H](CCC(N)=O)NC(=O)[C@H](CCCCN)NC(=O)[C@H](CO)NC(=O)[C@H](CC(C)C)NC(=O)[C@H](CC(=O)O)NC(=O)[C@H](CO)NC(=O)[C@@H](NC(=O)[C@H](Cc1ccccc1)NC(=O)[C@@H](NC(=O)CNC(=O)[C@H](CCC(N)=O)NC(=O)[C@@H](CO)NC(=O)[C@@H](N)Cc1c[nH]cn1)[C@@H](C)O)[C@@H](C)O)[C@@H](C)CC)[C@@H](C)O)C(N)=O)C(=O)O
[1]
  EC50 hGLP-1R (cAMP formation): 0.0396 nM
[2]
  EC50 hGlucagonR (cAMP formation): 0.0355 nM

B2: SEQ ID NO: (75) (peptide)
peptide: H[dS]QGTFTSDLSKQMESRRAQDFIEWLKRGGPSSGAPPPSK([γGlu-Palmitoyl])-NH2
modifications: N-terminus assumed
SMILES: CCCCCCCCCCCCCCCC(=O)N[C@@H](CCC(=O)NCCCC[C@H](NC(=O)[C@H](CO)NC(=O)[C@@H]1CCCN1C(=O)[C@@H]1CCCN1C(=O)[C@@H]1CCCN1C(=O)[C@H](C)NC(=O)CNC(=O)[C@H](CO)NC(=O)[C@H](CO)NC(=O)[C@@H]1CCCN1C(=O)CNC(=O)CNC(=O)[C@H](CCCNC(=N)N)NC(=O)[C@H](CCCCN)NC(=O)[C@H](CC(C)C)NC(=O)[C@H](Cc1c[nH]c2ccccc12)NC(=O)[C@H](CCC(=O)O)NC(=O)[C@@H](NC(=O)[C@H](Cc1ccccc1)NC(=O)[C@H](CC(=O)O)NC(=O)[C@H](CCC(N)=O)NC(=O)[C@H](C)NC(=O)[C@H](CCCNC(=N)N)NC(=O)[C@H](CCCNC(=N)N)NC(=O)[C@H](CO)NC(=O)[C@H](CCC(=O)O)NC(=O)[C@H](CCSC)NC(=O)[C@H](CCC(N)=O)NC(=O)[C@H](CCCCN)NC(=O)[C@H](CO)NC(=O)[C@H](CC(C)C)NC(=O)[C@H](CC(=O)O)NC(=O)[C@H](CO)NC(=O)[C@@H](NC(=O)[C@H](Cc1ccccc1)NC(=O)[C@@H](NC(=O)CNC(=O)[C@H](CCC(N)=O)NC(=O)[C@@H](CO)NC(=O)[C@@H](N)Cc1c[nH]cn1)[C@@H](C)O)[C@@H](C)O)[C@@H](C)CC)C(N)=O)C(=O)O
[1]
  EC50 hGLP-1R (cAMP formation): 0.0046 nM
[2]
  EC50 hGlucagonR (cAMP formation): 0.0641 nM

B3: SEQ ID NO: (78) (peptide)
peptide: H[dS]QGTFTSDLSKQMESRRAQDFIEWLKSGGPSSGAPPPSK([γGlu-Palmitoyl])-NH2
modifications: N-terminus assumed
SMILES: CCCCCCCCCCCCCCCC(=O)N[C@@H](CCC(=O)NCCCC[C@H](NC(=O)[C@H](CO)NC(=O)[C@@H]1CCCN1C(=O)[C@@H]1CCCN1C(=O)[C@@H]1CCCN1C(=O)[C@H](C)NC(=O)CNC(=O)[C@H](CO)NC(=O)[C@H](CO)NC(=O)[C@@H]1CCCN1C(=O)CNC(=O)CNC(=O)[C@H](CO)NC(=O)[C@H](CCCCN)NC(=O)[C@H](CC(C)C)NC(=O)[C@H](Cc1c[nH]c2ccccc12)NC(=O)[C@H](CCC(=O)O)NC(=O)[C@@H](NC(=O)[C@H](Cc1ccccc1)NC(=O)[C@H](CC(=O)O)NC(=O)[C@H](CCC(N)=O)NC(=O)[C@H](C)NC(=O)[C@H](CCCNC(=N)N)NC(=O)[C@H](CCCNC(=N)N)NC(=O)[C@H](CO)NC(=O)[C@H](CCC(=O)O)NC(=O)[C@H](CCSC)NC(=O)[C@H](CCC(N)=O)NC(=O)[C@H](CCCCN)NC(=O)[C@H](CO)NC(=O)[C@H](CC(C)C)NC(=O)[C@H](CC(=O)O)NC(=O)[C@H](CO)NC(=O)[C@@H](NC(=O)[C@H](Cc1ccccc1)NC(=O)[C@@H](NC(=O)CNC(=O)[C@H](CCC(N)=O)NC(=O)[C@@H](CO)NC(=O)[C@@H](N)Cc1c[nH]cn1)[C@@H](C)O)[C@@H](C)O)[C@@H](C)CC)C(N)=O)C(=O)O
[1]
  EC50 hGLP-1R (cAMP formation): 0.0042 nM
[2]
  EC50 hGlucagonR (cAMP formation): 0.0181 nM

B4: SEQ ID NO: (76) (peptide)
peptide: H[dS]QGTFTSDLSKQMESRRAQDFIEWLKR[dA]GPSSGAPPPSK([γGlu-Palmitoyl])-NH2
modifications: N-terminus assumed
SMILES: CCCCCCCCCCCCCCCC(=O)N[C@@H](CCC(=O)NCCCC[C@H](NC(=O)[C@H](CO)NC(=O)[C@@H]1CCCN1C(=O)[C@@H]1CCCN1C(=O)[C@@H]1CCCN1C(=O)[C@H](C)NC(=O)CNC(=O)[C@H](CO)NC(=O)[C@H](CO)NC(=O)[C@@H]1CCCN1C(=O)CNC(=O)[C@@H](C)NC(=O)[C@H](CCCNC(=N)N)NC(=O)[C@H](CCCCN)NC(=O)[C@H](CC(C)C)NC(=O)[C@H](Cc1c[nH]c2ccccc12)NC(=O)[C@H](CCC(=O)O)NC(=O)[C@@H](NC(=O)[C@H](Cc1ccccc1)NC(=O)[C@H](CC(=O)O)NC(=O)[C@H](CCC(N)=O)NC(=O)[C@H](C)NC(=O)[C@H](CCCNC(=N)N)NC(=O)[C@H](CCCNC(=N)N)NC(=O)[C@H](CO)NC(=O)[C@H](CCC(=O)O)NC(=O)[C@H](CCSC)NC(=O)[C@H](CCC(N)=O)NC(=O)[C@H](CCCCN)NC(=O)[C@H](CO)NC(=O)[C@H](CC(C)C)NC(=O)[C@H](CC(=O)O)NC(=O)[C@H](CO)NC(=O)[C@@H](NC(=O)[C@H](Cc1ccccc1)NC(=O)[C@@H](NC(=O)CNC(=O)[C@H](CCC(N)=O)NC(=O)[C@@H](CO)NC(=O)[C@@H](N)Cc1c[nH]cn1)[C@@H](C)O)[C@@H](C)O)[C@@H](C)CC)C(N)=O)C(=O)O
[1]
  EC50 hGLP-1R (cAMP formation): 0.0048 nM
[2]
  EC50 hGlucagonR (cAMP formation): 0.0741 nM

B5: SEQ ID NO: (77) (peptide)
peptide: H[dS]QGTFTSDLSKQMESRRAQDFIEWLKKGGPSSGAPPPSK([γGlu-Palmitoyl])-NH2
modifications: N-terminus assumed
SMILES: CCCCCCCCCCCCCCCC(=O)N[C@@H](CCC(=O)NCCCC[C@H](NC(=O)[C@H](CO)NC(=O)[C@@H]1CCCN1C(=O)[C@@H]1CCCN1C(=O)[C@@H]1CCCN1C(=O)[C@H](C)NC(=O)CNC(=O)[C@H](CO)NC(=O)[C@H](CO)NC(=O)[C@@H]1CCCN1C(=O)CNC(=O)CNC(=O)[C@H](CCCCN)NC(=O)[C@H](CCCCN)NC(=O)[C@H](CC(C)C)NC(=O)[C@H](Cc1c[nH]c2ccccc12)NC(=O)[C@H](CCC(=O)O)NC(=O)[C@@H](NC(=O)[C@H](Cc1ccccc1)NC(=O)[C@H](CC(=O)O)NC(=O)[C@H](CCC(N)=O)NC(=O)[C@H](C)NC(=O)[C@H](CCCNC(=N)N)NC(=O)[C@H](CCCNC(=N)N)NC(=O)[C@H](CO)NC(=O)[C@H](CCC(=O)O)NC(=O)[C@H](CCSC)NC(=O)[C@H](CCC(N)=O)NC(=O)[C@H](CCCCN)NC(=O)[C@H](CO)NC(=O)[C@H](CC(C)C)NC(=O)[C@H](CC(=O)O)NC(=O)[C@H](CO)NC(=O)[C@@H](NC(=O)[C@H](Cc1ccccc1)NC(=O)[C@@H](NC(=O)CNC(=O)[C@H](CCC(N)=O)NC(=O)[C@@H](CO)NC(=O)[C@@H](N)Cc1c[nH]cn1)[C@@H](C)O)[C@@H](C)O)[C@@H](C)CC)C(N)=O)C(=O)O
[1]
  EC50 hGLP-1R (cAMP formation): 0.003 nM
[2]
  EC50 hGlucagonR (cAMP formation): 0.0372 nM
